Values of other authors as cited in article PMC2892843.

Target: NgR1 (UniProt Q9BZR6)
Sequence of UniProt Q9BZR6 (Q9BZR6 27-447): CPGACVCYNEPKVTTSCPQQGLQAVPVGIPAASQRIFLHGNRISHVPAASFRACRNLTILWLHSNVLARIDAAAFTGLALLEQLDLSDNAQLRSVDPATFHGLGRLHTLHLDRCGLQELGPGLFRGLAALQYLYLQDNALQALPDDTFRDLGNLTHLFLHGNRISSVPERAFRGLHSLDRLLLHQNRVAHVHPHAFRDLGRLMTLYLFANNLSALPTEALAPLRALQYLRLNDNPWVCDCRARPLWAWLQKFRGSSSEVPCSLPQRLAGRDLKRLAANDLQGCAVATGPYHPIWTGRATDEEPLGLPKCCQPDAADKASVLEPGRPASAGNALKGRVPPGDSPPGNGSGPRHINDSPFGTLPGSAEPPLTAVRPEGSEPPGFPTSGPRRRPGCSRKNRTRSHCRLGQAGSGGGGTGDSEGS

Kd: 10 nM
Substance: MAG (from UniProt P20916)
